Measurements reported in article PMC12412787.

Molecular target: T1, Pyl1p (Yarrowia lipolytica, UniProt Q6CBN1 1-600)
T1 sequence: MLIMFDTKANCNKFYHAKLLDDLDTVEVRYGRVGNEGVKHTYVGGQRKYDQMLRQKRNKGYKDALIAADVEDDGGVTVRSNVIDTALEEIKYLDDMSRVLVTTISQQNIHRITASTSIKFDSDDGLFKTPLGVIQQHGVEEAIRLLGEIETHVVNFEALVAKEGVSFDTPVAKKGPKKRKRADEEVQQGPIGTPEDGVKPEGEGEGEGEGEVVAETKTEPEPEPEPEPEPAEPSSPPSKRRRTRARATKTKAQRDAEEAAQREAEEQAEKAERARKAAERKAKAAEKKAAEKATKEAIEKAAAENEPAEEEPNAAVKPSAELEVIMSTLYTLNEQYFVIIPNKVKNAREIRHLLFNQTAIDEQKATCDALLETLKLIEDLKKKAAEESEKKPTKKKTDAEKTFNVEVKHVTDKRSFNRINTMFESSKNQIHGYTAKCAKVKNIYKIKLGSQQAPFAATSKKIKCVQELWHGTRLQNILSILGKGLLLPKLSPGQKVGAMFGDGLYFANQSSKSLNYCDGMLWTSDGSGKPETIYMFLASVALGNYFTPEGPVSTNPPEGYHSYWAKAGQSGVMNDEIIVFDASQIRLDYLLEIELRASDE
Assay: EMSA

B1: dsTEL probe (YlipTEL_G/YlipTEL_C) (dsDNA)
DNA 1: TTAGTCAGGGTTAGTCAGGG
DNA 2: CCCTGACTAACCCTGACTAA
B1: binds.
